Reference: the DeepSol protein solubility set

test: soluble on expression in E. coli; label from the status in PepcDB or PDB records

| Sequence | soluble on expression in E. coli |
| --- | --- |
| MGSDKIHHHHHHMTAAAATTAGATGGASRRPADEAIAADARALSEQLKAMRDRLFAPTAMKTLRSFTSGEAAKLIGVSDGYLRQLSLAGEGPQPDTGAGGRRSYSLSDINALRRHLAEQAIAKGNGAKARGYLKWRDAARSEHLQVISVTNFKGGSGKTTSSVHLAQYLALTGHRVLAVDLDPQASLSALFGYQPELDLTGNDTLYGAIRYDAEARPLKDIIRKTYFDGLDLVPGNLELQEFEHTTPQALSARQSGADAGPLFFARVQAALASVADDYDVVVIDCPPQLGYLTLSALCASTSVIVTVHPQMLDVASMNQFLYMTSDLLSVVRDAGGELNFDFLRYLVTRFEPNDGPQAQIVGFMRSLFGDRVLTSAMVKSTAISDAGLTKQTLYEVGRENFTRATYDRAIESLNAVNGEIEALIHAAWGR | not soluble |
| MNLDTPLADGLERAKRFEQGLQQVVLGQERPIRLLTLAVFARGHALLEGGVGVGKTTLLRAVARGIGGDYERIEGTIDLMPNDLVYYTYLDEQGRPGVAPGPLLKHGEQLSIFFFNEINRARPQVHSLLLRVMAERSVSAFNREYRFPYLQVFADRNRVEKEETFELPAAARDRFMLEIAIEPPADPAHIDQILFDPRFYDPDRLVASAPADTLSFRELNGIAEALQGGIHVSARLRSYVQDLWRATRRPEDFGIALHEADSGDMIEAGSSPRGMSYLVRLARVQAWLSGRDRVEPEDVQYVFAPAVGHRIFLKPVYEYRRAELIPELVGKLIRRIAAPLEHHHHHH | not soluble |
| SLGSQSSKAPRGDVTAEEAAGASPAKANGQENGHVKSNGDLSPKGEGESPPVNGTDEAAGATGDAIEPAPPSQGAEAKGEVPPKETPKKKKKFSFKKPFKMSGMSFKRNRKEGGGDSSASSPTEEEQEQGEIGACSDEGTAQEGKAAATPESQEPQAKGAEASAASEEEAGPQATEPSTPSGPESGPTPASAEQNE | soluble |
| MAHHHHHHMYQGRSQQPLWTPPPNFSQVETGIYRSAYPTLASVPFLHHIGIKTIVLLSIELLPVPVVRAISEGDVVAGTTSVSDDVHAWKDNECIKWPIRIVSTADLSEWMNEYVCAKDDFAVSSVQRALDFALQPDFQPVLFTCPTGELQTSVIVGCMRRHQGWSLAAVLAECELFVNVTGGVRQSVMNFIEQWDPDEHPVREEDIAKRKRELLLRDPSLSYSVKRHRRTVTHSASDPDSEYDDPLAMGTSRLGQKGTAGNSAGMGLSLSPYKSSGFDRSTLSSTRVGGDELGLSHSSHVVIKLASWYTAAMKRRAAAAEAIVAARAKVRAPSDPLPEPHERYFGVLNPPALDERSTFTKKSIVQDLD | not soluble |
| MKTYHLNNDIIVTQEQLDHWNEQLIKLETPQEIIAWSIVTFPHLFQTTAFGLTGLVTIDMLSKLSEKYYMPELLFIDTLHHFPQTLTLKNEIEKKYYQPKNQTIHVYKPDGCESEADFASKYGDFLWEKDDDKYDYLAKVEPAHRAYKELHISAVFTGRRKSQGSARSQLSIIEIDELNGILKINPLINWTFEQVKQYIDANNVPYNELLDLGYRSIGDYHSTQPVKEGEDERAGRWKGKAKTECGIHEASRFAQFLKQDA | soluble |
| MILGEIMEVLAFKNQSLIDHVNDMVKYWERIKYRYLKTIKRALEALNIKLDIEKVDEFMKILIKLHDIGKASKIYQRAIINDQEKLMGFRHELVSAYYTYHILLKKFGDKNLAFIGALTVMLHHEPIIMGQIRNLKKKELTAEVVLDKLKKFDGMIEDFEDLIKKLIGYSIGDIIKNDSNKDDIIRFVIEMSVRARHTPNSEKLRFIVGTLLLPLVMCDYKGAESREGKAPKFAEVLEVESYVI | soluble |
| MLQPPFNIKVTNITLTTAVVTWQPPILPIEGILVTFGRKNDPSDETTVDLTSSITSLTLTNLEPNTTYEIRIVARNGQQYSPPVSTTFTTGSLEHHHHHH | soluble |
| MSPLPPPPDIQHEFDKNQDPHETNLALRRLYPQIRERENERHIPRRWDLRQASSYLDISQSGYGVTFKKNVTVAEDKDPAGVVRADAFIQQCIGVYYFEVRILEGHSGCMGIGLSKKDCDLNRMPGWDPGCFGYHGDDGNFFLASGVGQAYGPKFGPGDVIGCGIDTFYHYVFFTKNGKHLGIAHTSPTALKELYPTVGFKTRGEKLVANFGVKPFEFDFEAYRQHLMNKKIHLLENIKMPENFGKQMNRIVSSFLGTTGALATLQKFEETTKPEVPIDHEYYAQRKEITDMILKAARGAEIHEKIEKYFPGLVEDDANVHLLILCLRYIDLANTLHEPPNCFTNSTTGRSPSPTEIRARPPKLLKGSQCKTTKRTREAQRRSANSQVHTPPPVRLTNAKATEELYLKDAKIERFYIDQDTEEEMLHIDGVSMPTKMFVELEKSGQYRKLNYILKMGREIMKVAGEMRGNIAPEARKVVEIATSMVSSPERPAKHPLSFALRRFIANSVVDMICYYVHHKREGKSTKRPRGTSTGEIPGSSSLRMFSELRNLFTGWKGLHIDYSTNDKKMAGIHFVRKMILEEPNFNEKEIIYTDEPMELAHERPDPPPREIIRQQRNEFQF | not soluble |
| MTAQSYHPMIKEFPEFYGPLTCPGQFLALLILEFGLNFAEIQKLKWENFNWNFKYLTIEKAGIKRVLPIREKFAIRVKAINNADELFAKSRQFLYTELKKFTNYSSKEIREQYILHQVKAGKSIYELATLLGLTTITTLEKYYRLEHHHHHH | soluble |
| SSESESGGDFHEMREPRIEKVVVHMGIGHGGRDLANAEDILGEITGQMPVRTKAKRTVGEFDIREGDPIGAKVTLRDEMAEEFLQTALPLAELATSQFDDTGNFSFGVEEHTEFPSQEYDPSIGIYGLDVTVNLVRPGYRVAKRDKASRSIPTKHRLNPADAVAFIESTYDVEVSE | soluble |
| MGSDKIHHHHHHMDKNPLVYEYSIGKRKPYDYDYGNRQGNQNAGCPFCDVRHLVNIFEKDGDKIWLKNKYPTLQDTDQTILIESSDHQGDISTYTREDNQELMKFALKCFQKMYNSGRYKSVLWYKNFGPKSDGSLTHPHMQIVGLYHKDGYHDIGPDNFKGFEVGKSGSVEMNLSAYPVQGYQEVNIITHDNTNLGTWADLIQKGTQYVRSVLSHGVDSYNLFFYPINDGQGTCCKIIPRFYASPYFVGYKISQVDDSDTLKWEAERLKGFVNGGILH | not soluble |
| SASFQRKGLQARILSTEEEEKLKRDQALVSAFKQQKLEKEAQKNWDLFYKRNSTNFFKDRHWTTREFEELRSCREYEGQKLTLLEAGCGVGNCLFPLLEEDLNLFAYACDFSPRAVDYVKQHPLYNAERCKVFQCDLTRDDLLDHVPPESVDAVTLIFVLSAVHPEKMRLVLLNVYKVLKPGRSVLFRDYGLNDHAMLRFKAGSKLGENFYVRQDGTRSYFFTDEFLAQLFVDAGYEEVVNEYVFRETVNKKEGLCVPRVFLQSKFRKPPKDPAPTSDSASL | soluble |
| MRRKNLFWDDVYKGTPPWDLDHPQPAFEALIKNGEIKPGRALDIGCGRGENAIILAMNGCDVIGIDLAENAISDAKAKATERHVKVKFVVEDALQMNRLFEEGEFDVVIDSGLFHVMMDEQRRVFAQQVHRVLREGGKYFMLCFSDKEPGEYELPRRLSKAEIESTFSPVFDITYIKEAVFDSLLSPSRRKAYLLSATRSLEHHHHHH | not soluble |
| MGSDKIHHHHHHMDMIVTSKKSSRNANSGCAIHCNDCSMSELCIPFTLNANELEELDNIIERKKPVQKGDKLFQSGDGLKSLYAIRSGTIKSYTITQQGDEQITGFHLAGDVIGFDAIHKQAHQSFAEALETSMICEIPFDTLDSLAGTMPKLRQQIMRLMSHEIISDQEMILLLSKKNAEERLAAFIAKLANRFANRGFSPNEFRLSMTRGDIGNYLGLTVETISRLLGRFQKAQMIAVNGKYITIVDHQALNTLADHTEQ | not soluble |
| MFQQQKDWETRENAFAAFTMGPLTDFWRQRDEAEFTGVDDIPVRFVRFRAQHHDRVVVICPGRIESYVKYAELAYDLFHLGFDVLIIDHRGQGRSGRLLADPHLGHVNRFNDYVDDLAAFWQQEVQPGPWRKRYILAHSMGGAISTLFLQRHPGVCDAIALTAPMFGIVIRMPSFMARQILNWAEAHPRFRDGYAIGTGRWRALPFAINVLTHSRQRYRRNLRFYADDPTIRVGGPTYHWVRESILAGEQVLAGAGDDATQTLLLQAEEERVVDNRMHDRFCELRTAAGHPVEGGRPLVIKGAYHEILFEKDAMRSVALHAIVDFFNRHNSPSGNRSTEV | not soluble |
| MAHHHHHHMSWRARFTPCVGSLTVWLNPKDPNCFGVRNWWRNNLPELQLLNPFCTFTIQELSFGEPHMYVNYTPTDQRMIRLAGATEEECEEIMEACITYGMNHAIIERPRTDDGGDLVNQPAITSFGYTESFTAKLEVAPPADIGQKTTEGVDDPGQKPRLYPRNVGCKLMP | not soluble |
| MCTFCSIINRELEGYFVYEDEKFAAILDKYPVSLGHTLVIPKKHFENYLEADEDTLAELAKVVKLVSLGIKDAVKADGLRLLTNIGRSAGQVIFHLHVHIIPTWEGDYPDIFKSFKPRKEQEKEYYELLQKIIRESIENLKRKIGDYKWG | soluble |
| NLSSSESQESTGQHQVTVAAVQGNVPRLGLDFNAQRRAVLANHVQETRKLTEQVDFIVWPENSSDVDPFADVRARNLINSAVASVQAPIVVGTVTTDEVGARNAMVVFDPETGEGDWHVKKFLQPFGEWMPWRDFFRKFSSLVDLAGDFKPGEGSGVVRVHAAQLGETVKLGISTCYEVAFDQAGRDAVLAGAQILATPTNNATFGFTDMTYQQLAMSRMRAIELDRAVVVAATSGVSAIVTPRGEVLQHSKIFESATLVQSLPLKETITFSARYGTLLE | not soluble |
| MDALTDSGSDPLLSAALGSPIHHAILSMDDEVDGNCDDVDDISPESHHDNHFIDFTDDLVVQTERNLSKKGRTSNRNARQGYDNYATLTNLQPLPPISTVTSKSTKVQRPSPSPNFYFPTSSNSSYDMKYEEEEDDCEGITHSSSSPSDFSNHGTDLNHPFSASSFDSFDVTTVSTTATSTIMNSTDKFIARIQEADSTTKSPKGTSPAALMHGHCEEDFDDGEELNTKELALQIAAELKRYSIPQAIFAERVLCRSQGTLSDLLRNPKPWSKLKSGRETFRRMAKWLEEPEFQRMSALRLAACKRKEEHTTPNSPQMVVPKKTRLVFSDIQRRTLQAIFRETKRPSREMQITISQQLNLDPTTVANFFMNARRRGHDLKQETSESEERSEEPSIHFEHSASSSSASSSSSSSMQLDNYICDINTINILEEPSPEPREIKYSMQLLENELDFPANILEP | not soluble |
| MRMPASMEPDWKALLRVLRAHSATFYLGSLLFPKEARKGAWAVYAACRLGDEAVDGEGGGPEALEAWCSGVERAYRGRPLAEWEKGLAWALERWDIPFEAFLHMREGFQTDLGPVRLGTEAELLRYCYQVAGTVGRMMAPIAGGGKEAEARAVKLGQAMQLTNILRDVGEDLGRDRVYLPSELLKAYGVRLSDLEAGRITPEYRALMAHLEGKARALYREGLAGLGHLKVGRAAIALAALQYRGILDKLRLSGYDNLGRRAHLKAWERALLLPKAFLAARFPPRPEGSP | soluble |
| AAASMDAVTAEKFSPASFLDKKETGVLHFVKYHGLGNDFILVDNRDSSEPKITQEQAAKLCDRNFGVGADGVIFAMPGVNGTDYAMRIFNSDGSEPEMCGNGVRCFARFIAELENLQGKHSFTIHTGAGLIVPEIQDDGQVKVDMGTPILKAQDVPTKLSGNKGEAVVEAELVVDGVSWNVTCVSMGNPHCITFGKKGGPNLKVDDLNLPEIGPKFEHHEMFPARTNTEFVEVLSRSHLKMRVWERGAGATLACGTGACALVVAAVLEGRADRKCTVDLPGGPLEIEWKQEDNHIYMTGPAEAVFYGSALLHHHHHH | soluble |
| GSCKLPVKKATVVYQGERVKIQEKFKNGMLHGDKVSFFCKNKEKKCSYTEDAQCIDGTIEVPKCFKEHSSLAFWKTDASDVKPCA | soluble |
